Source: US10053716B2, “4-amino cinnamic acid production method using enzyme” (JAPAN SCIENCE AND TECHNOLOGY AGENCY, priority 2014, dated 2018)

Key:
Type in all cases: biochemical
[1] = PAL activity of Escherichia coli recombinant enzyme crude extract; conditions: crude extract, NST37(DE) host, 20 mM phenylalanine
Description: (§1) [Measurement of Enzyme Activity of Escherichia coli Recombinant Enzyme Crude Extract]
(§2) Escherichia coli was inoculated into 5 ml of LB medium containing 100 mg/L ampicillin sodium or 100 mg/L kanamycin sulfate, and cultured overnight at 37° C. It was then inoculated into 200 ml of the same culture medium and cultured to an O.D. of 0.6, isopropyl-β-thiogalactopyranoside (IPTG) was added to a final concentration of 0.5 mM, and culturing was conducted for 12 hours at 28° C.
(§3) The cultured cells were collected and suspended in 20 mM potassium phosphate buffer (pH 7.5) and subjected to ultrasonic disruption and the supernatant was used as a crude extract for activity measurement. The enzyme activity was measured and quantified by measuring the absorbance at the absorption wavelength of the reaction product using a spectrophotometer, for a period of 5 minutes. For PAL activity, the crude extract was added to 100 mM Tris Buffer (pH 8.0) and 20 mM phenylalanine, reaction was conducted, and production of cinnamic acid was measured by the change in absorbance at a wavelength of 290 nm, while for 4APAL activity, 20 mM 4-aminophenylalanine was used as substrate and the absorbance at a wavelength of 315 nm due to 4-aminocinnamic acid was measured and quantified.

[2] = 4APAL activity of Escherichia coli recombinant enzyme crude extract; conditions: crude extract, NST37(DE) host, 20 mM 4-aminophenylalanine
Description: as §1, §2, §3

[3] = Km and kcat of recombinant purified enzyme for phenylalanine; conditions: purified His-tag enzyme
Description: (§4) [Measurement of Enzyme Activity of Escherichia coli Recombinant Purified Enzyme]
(§5) Escherichia coli was inoculated into 5 ml of LB medium containing 100 mg/L ampicillin sodium or 100 mg/L kanamycin sulfate, and cultured overnight at 37° C. It was then used to inoculate 200 ml of the same culture medium and cultured to an O.D of 0.6, IPTG was added to a final concentration of 0.5 mM, and the incubation was continued for 12 hours at 28° C. The rotational speed during cultures was 120 rpm. The cultured cells were collected and suspended in 20 mM potassium phosphate buffer (pH 7.5) and subjected to ultrasonic disruption, and after centrifugal separation, the supernatant was purified using a His-Trap column and the enzyme activity was measured. The method of measuring the enzyme activity was according to the method for the crude extract described above.
(§6) Since pET28AtPAL4 and its mutants and RgPAL were produced as fusion proteins with His-tag in the Escherichia coli of Example 3, these enzymes could be easily purified using an affinity column. After culturing the producing cells, the cells were collected, disrupted and purified. The purified enzymes were used to calculate the Km values and kcat values.

[4] = Km and kcat of recombinant purified enzyme for 4-aminophenylalanine; conditions: purified His-tag enzyme
Description: as §4, §5, §6

AtPAL4: PAL derived from the plant Arabidopsis thaliana, amino acid sequence SEQ ID NO: 4
PAL activity [1]: 0.18 µmol/min/mg | 4APAL activity [2]: 0.012 µmol/min/mg | Kcat value, Phenylalanine [3]: 5.1 s⁻¹ | Kcat value, 4-Aminophenylalanine [4]: >0.40 s⁻¹ | Km [4]: > 40 mM
